Source: patent US20240261333A1, “NOVEL TARGETS FOR ENHANCING ANTI-TUMOR IMMUNITY” (THE BROAD INSTITUTE, INC., priority 2021, published 2024)

What was measured:
ARPC2 = ARPC2 (UniProt O15144); experiment: co-IP, anti-FLAG, lysate of C-FLAG B3GNT2 cells, mass spectrometry
CEP170 = CEP170 (UniProt Q5SW79); experiment: as above
CSPG4 = CSPG4 (UniProt Q6UVK1); experiment: as above
DPM1 = DPM1 (UniProt O60762); experiment: as above
GNAS = GNAS (UniProt Q5JWF2); experiment: as above
HSPH1 = HSPH1 (UniProt Q92598); experiment: as above
LAMB1 = LAMB1 (UniProt P07942); experiment: as above
LRP2 = LRP2 (UniProt P98164); experiment: as above
MYO1D = MYO1D (UniProt O94832); experiment: as above
RBMX = RBMX (UniProt P38159); experiment: as above
RBMX, sequence (P38159 whole entry): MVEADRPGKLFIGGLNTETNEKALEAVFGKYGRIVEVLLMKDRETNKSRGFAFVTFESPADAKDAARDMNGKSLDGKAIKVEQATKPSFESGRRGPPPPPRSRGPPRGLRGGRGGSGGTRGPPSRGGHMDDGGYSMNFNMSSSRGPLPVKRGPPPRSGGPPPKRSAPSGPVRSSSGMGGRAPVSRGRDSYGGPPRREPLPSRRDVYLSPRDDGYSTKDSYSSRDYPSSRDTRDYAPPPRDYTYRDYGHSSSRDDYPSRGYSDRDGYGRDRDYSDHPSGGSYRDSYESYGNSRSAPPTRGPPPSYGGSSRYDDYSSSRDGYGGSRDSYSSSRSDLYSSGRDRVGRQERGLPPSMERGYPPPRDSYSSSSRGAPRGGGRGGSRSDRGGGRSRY

RNASE1 = RNASE1 (UniProt P07998); experiment: as above
RNASE1, sequence (P07998 29-156 limits assumed): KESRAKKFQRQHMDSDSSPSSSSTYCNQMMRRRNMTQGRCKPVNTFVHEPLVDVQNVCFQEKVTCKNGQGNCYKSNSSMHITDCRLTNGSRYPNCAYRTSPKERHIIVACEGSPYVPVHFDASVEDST

RPL29 = RPL29 (UniProt P47914); experiment: as above
SERPINE2 = SERPINE2 (UniProt P07093); experiment: as above
SLC25A1 = SLC25A1 (UniProt P53007); experiment: as above
SLC25A3 = SLC25A3 (UniProt Q00325); experiment: as above
SLC25A3, sequence (Q00325 50-362 limits assumed): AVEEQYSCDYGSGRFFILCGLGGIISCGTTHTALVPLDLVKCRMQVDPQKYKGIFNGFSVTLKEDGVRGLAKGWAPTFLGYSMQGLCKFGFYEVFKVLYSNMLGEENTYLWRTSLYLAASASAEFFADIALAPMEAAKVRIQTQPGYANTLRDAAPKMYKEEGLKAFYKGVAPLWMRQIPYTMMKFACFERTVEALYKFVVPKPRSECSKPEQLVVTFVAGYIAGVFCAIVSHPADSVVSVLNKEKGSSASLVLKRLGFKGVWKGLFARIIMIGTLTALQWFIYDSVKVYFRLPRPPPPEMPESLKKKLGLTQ

TM9SF3 = TM9SF3 (UniProt Q9HD45); experiment: as above
TNC = TNC (UniProt P24821); experiment: as above
TRIM28 = TRIM28 (UniProt Q13263); experiment: as above
ARF4 (human) = ARF4 (human) (UniProt P18085); experiment: co-IP with anti-FLAG, mass spectrometry; lysate of cells with C-FLAG B3GNT2
ARF4 (human), sequence (P18085 2-180 limits assumed): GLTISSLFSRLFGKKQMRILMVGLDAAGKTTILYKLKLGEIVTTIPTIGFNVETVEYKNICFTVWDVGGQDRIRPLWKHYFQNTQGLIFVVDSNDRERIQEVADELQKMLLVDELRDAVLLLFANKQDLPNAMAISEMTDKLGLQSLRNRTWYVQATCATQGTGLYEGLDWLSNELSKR

CCT7 (human) = CCT7 (human) (UniProt Q99832); experiment: as above
CCT7 (human), sequence (Q99832 45-543 limits assumed): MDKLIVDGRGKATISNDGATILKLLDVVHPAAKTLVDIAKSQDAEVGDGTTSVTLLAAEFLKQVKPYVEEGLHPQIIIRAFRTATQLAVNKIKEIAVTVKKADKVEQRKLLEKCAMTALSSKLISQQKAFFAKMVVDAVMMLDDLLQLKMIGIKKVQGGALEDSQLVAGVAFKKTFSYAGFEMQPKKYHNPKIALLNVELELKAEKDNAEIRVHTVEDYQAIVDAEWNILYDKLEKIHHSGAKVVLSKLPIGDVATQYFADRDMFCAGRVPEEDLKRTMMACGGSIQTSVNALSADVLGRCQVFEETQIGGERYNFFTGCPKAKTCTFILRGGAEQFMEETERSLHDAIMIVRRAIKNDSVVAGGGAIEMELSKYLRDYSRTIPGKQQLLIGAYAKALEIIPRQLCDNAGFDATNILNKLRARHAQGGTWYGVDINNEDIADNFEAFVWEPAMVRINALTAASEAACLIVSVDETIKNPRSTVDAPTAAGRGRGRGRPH

CTHRC1 (human) = CTHRC1 (human) (UniProt Q96CG8); experiment: as above
DNAJB11 (human) = DNAJB11 (human) (UniProt Q9UBS4); experiment: as above
EIF4A1 (human) = EIF4A1 (human) (UniProt P60842); experiment: as above
GALNT2 (human) = GALNT2 (human) (UniProt Q10471); experiment: as above
GALNT2 (human), sequence (Q10471 whole entry): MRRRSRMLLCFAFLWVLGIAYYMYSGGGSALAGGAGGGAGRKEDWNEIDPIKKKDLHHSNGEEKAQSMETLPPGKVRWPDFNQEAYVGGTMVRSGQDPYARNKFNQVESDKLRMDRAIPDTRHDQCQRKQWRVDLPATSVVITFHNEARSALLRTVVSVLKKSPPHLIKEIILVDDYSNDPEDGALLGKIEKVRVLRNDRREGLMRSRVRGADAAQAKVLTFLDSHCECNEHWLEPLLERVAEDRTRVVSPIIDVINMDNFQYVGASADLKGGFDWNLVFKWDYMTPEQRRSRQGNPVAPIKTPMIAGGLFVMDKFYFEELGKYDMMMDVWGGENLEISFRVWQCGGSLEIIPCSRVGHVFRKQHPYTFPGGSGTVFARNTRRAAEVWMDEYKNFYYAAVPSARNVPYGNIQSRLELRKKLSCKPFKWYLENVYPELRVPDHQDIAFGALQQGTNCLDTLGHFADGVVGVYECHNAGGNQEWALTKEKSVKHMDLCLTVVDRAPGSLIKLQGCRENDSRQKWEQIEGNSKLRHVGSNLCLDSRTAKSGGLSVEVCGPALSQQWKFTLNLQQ

GAPDH (human) = GAPDH (human) (UniProt P04406); experiment: as above
GAPDH (human), sequence (P04406 2-335 limits assumed): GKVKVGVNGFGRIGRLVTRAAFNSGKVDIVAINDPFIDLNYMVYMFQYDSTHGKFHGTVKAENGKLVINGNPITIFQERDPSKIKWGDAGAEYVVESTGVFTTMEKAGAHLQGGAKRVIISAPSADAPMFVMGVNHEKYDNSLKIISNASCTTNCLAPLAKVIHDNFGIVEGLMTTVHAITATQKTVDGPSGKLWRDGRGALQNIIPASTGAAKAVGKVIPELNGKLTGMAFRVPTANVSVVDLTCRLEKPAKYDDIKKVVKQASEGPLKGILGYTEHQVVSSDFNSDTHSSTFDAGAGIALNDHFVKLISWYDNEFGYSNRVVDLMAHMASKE

HADHA (human) = HADHA (human) (UniProt P40939); experiment: as above
HSPD1 (human) = HSPD1 (human) (UniProt P10809); experiment: as above
NPM1 (human) = NPM1 (human) (UniProt P06748); experiment: as above
NPM1 (human), sequence (P06748 whole entry): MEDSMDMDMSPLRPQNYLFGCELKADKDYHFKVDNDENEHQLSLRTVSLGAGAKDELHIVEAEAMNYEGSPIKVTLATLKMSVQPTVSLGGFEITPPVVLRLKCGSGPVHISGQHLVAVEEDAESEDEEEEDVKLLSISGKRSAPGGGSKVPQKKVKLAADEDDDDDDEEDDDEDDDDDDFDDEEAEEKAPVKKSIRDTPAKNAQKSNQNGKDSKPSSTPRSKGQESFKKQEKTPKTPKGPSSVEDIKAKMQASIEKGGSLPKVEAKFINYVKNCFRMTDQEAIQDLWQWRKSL

PIGR (human) = PIGR (human) (UniProt P01833); experiment: as above
PJA2 (human) = PJA2 (human) (UniProt O43164); experiment: as above
PJA2 (human), sequence (O43164 2-708 limits assumed): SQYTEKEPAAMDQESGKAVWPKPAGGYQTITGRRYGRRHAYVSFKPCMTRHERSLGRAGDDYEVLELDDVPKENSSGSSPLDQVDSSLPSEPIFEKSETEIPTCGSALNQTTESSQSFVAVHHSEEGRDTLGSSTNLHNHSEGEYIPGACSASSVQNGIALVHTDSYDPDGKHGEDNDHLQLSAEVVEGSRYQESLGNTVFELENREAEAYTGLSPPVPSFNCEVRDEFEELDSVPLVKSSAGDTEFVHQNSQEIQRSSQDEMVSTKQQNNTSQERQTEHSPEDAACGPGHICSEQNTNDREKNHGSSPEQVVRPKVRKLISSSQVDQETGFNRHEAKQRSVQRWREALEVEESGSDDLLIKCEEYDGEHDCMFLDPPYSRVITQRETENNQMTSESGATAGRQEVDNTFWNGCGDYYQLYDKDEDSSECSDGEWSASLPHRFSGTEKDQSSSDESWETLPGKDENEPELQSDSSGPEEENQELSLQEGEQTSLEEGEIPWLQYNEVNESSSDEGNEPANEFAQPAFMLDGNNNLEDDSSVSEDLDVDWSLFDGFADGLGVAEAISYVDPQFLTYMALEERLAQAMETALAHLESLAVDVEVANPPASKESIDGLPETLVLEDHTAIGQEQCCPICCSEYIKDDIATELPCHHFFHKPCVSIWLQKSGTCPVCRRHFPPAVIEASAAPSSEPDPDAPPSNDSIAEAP

RPL26 (human) = RPL26 (human) (UniProt P61254); experiment: as above
RPL32 (human) = RPL32 (human) (UniProt P62910); experiment: as above
RPL9 (human) = RPL9 (human) (UniProt P32969); experiment: as above
RPS27 (human) = RPS27 (human) (UniProt P42677); experiment: as above
SLC27A4 (human) = SLC27A4 (human) (UniProt Q6P1M0); experiment: as above
SPRR1A (human) = SPRR1A (human) (UniProt P35321); experiment: as above
UGGT1 (human) = UGGT1 (human) (UniProt Q9NYU2); experiment: as above
ZC3HAV1 (human) = ZC3HAV1 (human) (UniProt Q7Z2W4); experiment: as above

CEP170, sequence (Q5SW79 whole entry): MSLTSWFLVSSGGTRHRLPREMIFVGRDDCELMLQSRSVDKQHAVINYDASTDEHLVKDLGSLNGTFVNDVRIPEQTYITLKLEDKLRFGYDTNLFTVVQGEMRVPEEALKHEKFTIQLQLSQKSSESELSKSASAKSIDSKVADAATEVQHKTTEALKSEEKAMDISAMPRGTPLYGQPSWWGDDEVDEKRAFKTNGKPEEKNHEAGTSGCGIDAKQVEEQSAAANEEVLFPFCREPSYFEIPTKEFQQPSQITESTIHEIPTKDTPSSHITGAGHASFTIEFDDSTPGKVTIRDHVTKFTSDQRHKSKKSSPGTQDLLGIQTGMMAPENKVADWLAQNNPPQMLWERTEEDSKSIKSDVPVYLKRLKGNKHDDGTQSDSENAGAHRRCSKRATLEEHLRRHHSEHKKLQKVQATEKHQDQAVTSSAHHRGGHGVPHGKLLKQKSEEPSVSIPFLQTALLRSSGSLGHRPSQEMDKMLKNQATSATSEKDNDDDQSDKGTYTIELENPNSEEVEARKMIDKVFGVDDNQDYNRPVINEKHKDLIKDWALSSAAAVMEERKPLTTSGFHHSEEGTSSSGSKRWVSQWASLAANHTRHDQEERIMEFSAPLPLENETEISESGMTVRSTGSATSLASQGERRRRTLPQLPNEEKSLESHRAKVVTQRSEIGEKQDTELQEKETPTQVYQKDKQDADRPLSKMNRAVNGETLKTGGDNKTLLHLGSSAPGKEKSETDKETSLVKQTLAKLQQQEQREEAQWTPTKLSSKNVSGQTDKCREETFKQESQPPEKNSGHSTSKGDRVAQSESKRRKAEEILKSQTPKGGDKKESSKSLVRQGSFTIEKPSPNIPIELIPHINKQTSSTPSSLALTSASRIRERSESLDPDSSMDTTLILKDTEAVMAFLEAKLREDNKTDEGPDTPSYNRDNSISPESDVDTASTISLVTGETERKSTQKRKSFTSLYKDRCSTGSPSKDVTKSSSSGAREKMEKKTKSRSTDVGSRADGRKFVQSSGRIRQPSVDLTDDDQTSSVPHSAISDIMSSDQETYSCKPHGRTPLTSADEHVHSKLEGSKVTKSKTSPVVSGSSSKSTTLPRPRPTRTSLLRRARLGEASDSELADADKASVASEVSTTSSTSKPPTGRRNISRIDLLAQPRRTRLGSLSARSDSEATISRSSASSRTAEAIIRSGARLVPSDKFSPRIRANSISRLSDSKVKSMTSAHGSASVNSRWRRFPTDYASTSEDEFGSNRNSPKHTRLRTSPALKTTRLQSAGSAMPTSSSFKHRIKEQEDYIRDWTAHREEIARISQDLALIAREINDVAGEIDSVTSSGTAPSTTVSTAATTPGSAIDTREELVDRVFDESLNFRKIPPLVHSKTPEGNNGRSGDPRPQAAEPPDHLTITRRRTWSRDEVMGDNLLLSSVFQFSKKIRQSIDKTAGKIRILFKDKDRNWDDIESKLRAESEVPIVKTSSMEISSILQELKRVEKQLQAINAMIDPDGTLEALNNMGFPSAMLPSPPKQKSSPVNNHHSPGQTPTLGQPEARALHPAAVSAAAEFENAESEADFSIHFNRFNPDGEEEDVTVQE

“C-terminal FLAG tagged B3GNT2 (from UniProt Q9NY97 1-397) (enzyme)” showed a co-IP/MS count (ARPC2) of 2, a co-IP/MS count (CEP170) of 2 and a co-IP/MS count (CSPG4) of 12. The co-IP/MS count (DPM1) was 8, the co-IP/MS count (GNAS) was 2 and the co-IP/MS count (HSPH1) was 7. It also gave a co-IP/MS count (LAMB1) of 2, a co-IP/MS count (LRP2) of 2 and a co-IP/MS count (MYO1D) of 2. It also gave a co-IP/MS count (RBMX) of 2, a co-IP/MS count (RNASE1) of 2 and a co-IP/MS count (RPL29) of 6. The co-IP/MS count (SERPINE2) was 11, the co-IP/MS count (SLC25A1) was 8 and the co-IP/MS count (SLC25A3) was 9. It also gave a co-IP/MS count (TM9SF3) of 11, a co-IP/MS count (TNC) of 10 and a co-IP/MS count (TRIM28) of 8. For the same substance, the co-IP mass spectrometry count (ARF4 (human)) was 4, the co-IP mass spectrometry count (CCT7 (human)) was 2 and the co-IP mass spectrometry count (CTHRC1 (human)) was 2. The co-IP mass spectrometry count (DNAJB11 (human)) was 4, the co-IP mass spectrometry count (EIF4A1 (human)) was 6 and the co-IP mass spectrometry count (GALNT2 (human)) was 2. For the same substance, the co-IP mass spectrometry count (GAPDH (human)) was 16, the co-IP mass spectrometry count (HADHA (human)) was 2 and the co-IP mass spectrometry count (HSPD1 (human)) was 6. It also gave a co-IP mass spectrometry count (NPM1 (human)) of 8, a co-IP mass spectrometry count (PIGR (human)) of 5 and a co-IP mass spectrometry count (PJA2 (human)) of 2. The co-IP mass spectrometry count (RPL26 (human)) was 12, the co-IP mass spectrometry count (RPL32 (human)) was 7 and the co-IP mass spectrometry count (RPL9 (human)) was 7. It also gave a co-IP mass spectrometry count (RPS27 (human)) of 6, a co-IP mass spectrometry count (SLC27A4 (human)) of 2 and a co-IP mass spectrometry count (SPRR1A (human)) of 3. For the same substance, the co-IP mass spectrometry count (UGGT1 (human)) was 5 and the co-IP mass spectrometry count (ZC3HAV1 (human)) was 4.
